Source: patent US20060115477A1 (Bristol-Myers Squibb, published 2006)

Molecular target: T1, neuropilin-1 (human, UniProt O14786 22-923)
T1 construct: whole, on cells; On intact cells in FACS and cell assays; pulled down from Triton X-100 lysate of HT1080 cells in the immunoprecipitation, identified as the full length form by MALDI peptide mass fingerprint; also called NP-1; VEGF165R
Assay: competition FACS on HT1080 cells preincubated with VEGF165 (legend of FIG. 17)
Description: ScFv's were labeled with fluorescein isothiocyanate (Molecular Probes, # F-1906) according to the instructions of the manufacturer. HT1080 cells were preincubated with a control scFv, a NP-1-binding scFv's (e.g. scFv8, scFv13 or scFv22) (both at 25 μg/ml) or VEGF₁₆₅ (R&Dsystems, #293-VE/CF) ([…]) for 2 hours at 0° C. and the fluorescein labeled NP-1-binding scFv (5 μg/ml) was added for 30 min. at 0° C. Bound fluorescein labeled scFv were detected by flow cytometry and the geometric mean fluorescence intensity was recorded. In order to determine if NP-1-binding scFv has overlapping epitopes with VEGF and each other for binding to cell surface NP-1, a competition FACS with directly labeled scFv was performed. […] Furthermore, scFv8 and scFv24 have mutually overlapping epitopes whereas scFv13 has an epitope distinct from scFv8 and scFv24.

T1 sequence (O14786 22-923): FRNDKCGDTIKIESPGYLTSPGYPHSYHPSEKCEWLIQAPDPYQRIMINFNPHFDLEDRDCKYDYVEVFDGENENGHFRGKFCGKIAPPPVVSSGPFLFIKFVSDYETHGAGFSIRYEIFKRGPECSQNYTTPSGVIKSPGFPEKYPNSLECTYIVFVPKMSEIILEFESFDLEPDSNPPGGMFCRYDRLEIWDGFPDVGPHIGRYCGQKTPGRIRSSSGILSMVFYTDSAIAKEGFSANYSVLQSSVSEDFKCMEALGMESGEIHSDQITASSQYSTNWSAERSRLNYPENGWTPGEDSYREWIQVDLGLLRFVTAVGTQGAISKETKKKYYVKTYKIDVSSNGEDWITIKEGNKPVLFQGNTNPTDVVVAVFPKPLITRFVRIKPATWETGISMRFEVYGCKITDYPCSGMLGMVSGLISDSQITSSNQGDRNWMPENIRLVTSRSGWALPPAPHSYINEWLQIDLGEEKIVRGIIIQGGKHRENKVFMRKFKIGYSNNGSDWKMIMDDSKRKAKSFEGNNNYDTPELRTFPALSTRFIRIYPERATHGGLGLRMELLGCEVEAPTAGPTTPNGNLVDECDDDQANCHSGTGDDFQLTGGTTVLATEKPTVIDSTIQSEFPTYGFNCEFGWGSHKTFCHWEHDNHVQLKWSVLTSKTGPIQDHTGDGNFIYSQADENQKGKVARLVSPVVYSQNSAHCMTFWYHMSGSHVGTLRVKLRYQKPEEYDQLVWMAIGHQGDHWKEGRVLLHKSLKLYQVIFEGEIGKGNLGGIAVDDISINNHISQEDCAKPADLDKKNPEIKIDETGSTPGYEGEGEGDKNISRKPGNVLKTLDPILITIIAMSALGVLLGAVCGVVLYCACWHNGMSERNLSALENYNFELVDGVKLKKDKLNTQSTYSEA

binding result: binds
B1: VEGF165 (R&Dsystems, #293-VE/CF) (ligand, human, UniProt P15692-4 27-191, looked up)
chain: APMAEGGGQNHHEVVKFMDVYQRSYCHPIETLVDIFQEYPDEIEYIFKPSCVPLMRCGGCCNDEGLECVPTEESNITMQIMRIKPHQGQHIGEMSFLQHNKCECRPKKDRARQENPCGPCSERRKHLFVQDPQTCKCSCKNTDSRCKARQLELNERTCRCDKPRR
notes: mature; also called recombinant human VEGF
